Measurements: patent US20230149543A1 (GlaxoSmithKline, published 2023)

Target: T1, human ICOS (Inducible T-cell COStimulator) receptor on peripheral CD4 and CD8 T cells (human, UniProt Q9Y6W8 21-199)
T1 construct: Native ICOS on T cells of treated subjects; also called ICOS receptor; CD278
T1 sequence: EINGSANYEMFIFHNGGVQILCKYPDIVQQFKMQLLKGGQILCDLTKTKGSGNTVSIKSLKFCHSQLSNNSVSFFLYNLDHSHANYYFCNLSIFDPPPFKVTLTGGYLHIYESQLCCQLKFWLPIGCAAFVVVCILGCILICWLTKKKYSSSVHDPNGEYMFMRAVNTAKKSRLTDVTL
Test: ICOS receptor occupancy on peripheral CD4 and CD8 T cells of dosed subjects (clinical pharmacodynamic analysis)

B1: H2L5 hIgG4PE (antibody, V domains shown)
VH: QVQLVQSGAEVKKPGSSVKVSCKASGYTFTDYAMHWVRQAPGQGLEWMGLISIYSDHTNYNQKFQGRVTITADKSTSTAYMELSSLRSEDTAVYYCGRNNYGNYGWYFDVWGQGTTVTVSS
VL: EIVLTQSPATLSLSPGERATLSCSASSSVSYMHWYQQKPGQAPRLLIYDTSKLASGIPARFSGSGSGTDYTLTISSLEPEDFAVYYCFQGSGYPYTFGQGTKLEIKR
notes: Humanized IgG4PE (S228P, L235E) monoclonal antibody; also called H2L5 IgG4PE; feladilimab
Does B1 bind?
Result: binds
